In US20200115458A1 (CALIFORNIA INSTITUTE FOR BIOMEDICAL RESEARCH, published 2020):

T1: human ASGPR (asialoglycoprotein receptor) (human, UniProt P07306 62-291)
T1 construct: also called human ASPGR; ASGPR antigen (human)
T1 sequence: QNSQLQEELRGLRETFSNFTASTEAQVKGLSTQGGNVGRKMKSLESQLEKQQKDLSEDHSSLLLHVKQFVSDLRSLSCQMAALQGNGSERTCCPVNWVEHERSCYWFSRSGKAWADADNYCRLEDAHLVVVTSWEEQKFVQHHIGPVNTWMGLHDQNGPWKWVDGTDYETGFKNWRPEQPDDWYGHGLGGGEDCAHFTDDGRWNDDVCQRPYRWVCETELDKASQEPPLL

T2: rat ASGPR (rat, UniProt P02706 61-284)
T2 construct: also called ASGPR antigen (rat)
T2 sequence: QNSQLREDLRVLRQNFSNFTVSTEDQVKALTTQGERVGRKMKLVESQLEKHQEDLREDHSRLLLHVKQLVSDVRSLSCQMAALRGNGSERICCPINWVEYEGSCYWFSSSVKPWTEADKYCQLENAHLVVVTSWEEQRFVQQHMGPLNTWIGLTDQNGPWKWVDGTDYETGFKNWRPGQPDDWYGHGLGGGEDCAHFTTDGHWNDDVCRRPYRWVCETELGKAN

T3: cynomolgus monkey ASGPR (cynomolgus monkey, UniProt P07306 62-291 (human entry))
T3 construct: also called cyno monkey ASGPR; cyno monkey ASPGR
T3 chain: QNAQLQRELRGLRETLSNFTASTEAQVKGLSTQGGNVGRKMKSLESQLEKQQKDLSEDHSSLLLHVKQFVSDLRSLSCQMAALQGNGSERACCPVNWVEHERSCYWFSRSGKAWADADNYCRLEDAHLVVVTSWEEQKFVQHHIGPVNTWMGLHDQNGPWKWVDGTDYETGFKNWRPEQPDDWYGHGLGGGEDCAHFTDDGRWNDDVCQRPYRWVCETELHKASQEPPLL

B1: Ins1-L1-Ab1L IgG (antibody)
light: FVNQHLCGSDLVEALYLVCGERGFFYTDPTGGGPRRGIVEQCCHSICSLYQLENYCNGGGGSETVLTQSPTTMATSPGEKITITCSASSTISSNYLHWYQQKPGFSPKLLIYRTSDLASGVPTRFSGSGSGTSYSLTIGTMEAEDVATYYCQQGSSIPFTFGSGTKLEINRADTAPTVSIFPPSSEQLTSGGASVVCFLNNFYPKDINVKWKIDGSERQNGVLNSWTDQDSKDSTYSMSSTLTLTKDEYERHNSYTCEATHKTSTSPIVKSFNRNEC
heavy: QVQLQQPGAELVKPGASVKLSCKASGYTFTNYWMHWVKQRPGRGLEWIGRIDLNSGGTNYNYNEKFKTKATLTVDKPSSTAYMQLSSLTSEDSAVYYCANYYGSSWFAYWGQGTTLTVSSAKTTAPSVYPLAPVCGDTTGSSVTLGCLVKGYFPEPVTLTWNSGSLSSGVHTFPAVLQSDLYTLSSSVTVTSSTWPSQSITCNVAHPASSTKVDKKIEPRGPTIKPCPPCKCPAPNLLGGPSVFIFPPKIKDVLMISLSPIVTCVVVDVSEDDPDVQISWFVNNVEVHTAQTQTHREDYNSTLRVVSALPIQHQDWMSGKEFKCKVNNKDLPAPIERTISKPKGSVRAPQVYVLPPPEEEMTKKQVTLTCMVTDFMPEDIYVEWTNNGKTELNYKNTEPVLDSDGSYFMYSKLRVEKKNWVERNSYSCSVVHEGLHNHHTTKSFSRTPGK
notes: also called Ins-L1-Ab1L IgG; Ins1-L1-AbL IgG
B2: Ins1-L3-Ab4 Fab (Fab)
light: FVNQHLCGSDLVEALYLVCGERGFFYTDPTGGGPRRGIVEQCCHSICSLYQLENYCNGGGEAAAKEAAAKEAAAKAGGEIVLTQSPGTLSLSPGERATLSCSASSTISSNYLHWYQQKPGQAPRLLIYRTSDLASGIPDRFSGSGSGTDFTLTISRLEPEDFAVYYCQQGSSIPFTFGQGTKLEIKRTVAAPSVFIFPPSDEQLKSGTASVVCLLNNFYPREAKVQWKVDNALQSGNSQESVTEQDSKDSTYSLSSTLTLSKADYEKHKVYACEVTHQGLSSPVTKSFNRGEC
heavy: QVQLVQSGAEVKKPGASVKVSCKASGYTFTNYWMHWVRQAPGQGLEWMGRIDLNSGGTNYNYAQKFQGRVTMTRDTSISTAYMELSRLRSDDTAVYYCARYYGSSWFAYWGQGTLVTVSSASTKGPSVFPLAPSSKSTSGGTAALGCLVKDYFPEPVTVSWNSGALTSGVHTFPAVLQSSGLYSLSSVVTVPSSSLGTQTYICNVNHKPSNTKVDKKVEPKSCDKTHT
notes: also called Ins1-L3-Ab4L (Fab); Ins1-L3-Ab4L and Ab4H(Fab)
B3: Ins1-L3-Ab4L IgG (antibody)
light: FVNQHLCGSDLVEALYLVCGERGFFYTDPTGGGPRRGIVEQCCHSICSLYQLENYCNGGGEAAAKEAAAKEAAAKAGGEIVLTQSPGTLSLSPGERATLSCSASSTISSNYLHWYQQKPGQAPRLLIYRTSDLASGIPDRFSGSGSGTDFTLTISRLEPEDFAVYYCQQGSSIPFTFGQGTKLEIKRTVAAPSVFIFPPSDEQLKSGTASVVCLLNNFYPREAKVQWKVDNALQSGNSQESVTEQDSKDSTYSLSSTLTLSKADYEKHKVYACEVTHQGLSSPVTKSFNRGEC
heavy: QVQLVQSGAEVKKPGASVKVSCKASGYTFTNYWMHWVRQAPGQGLEWMGRIDLNSGGTNYNYAQKFQGRVTMTRDTSISTAYMELSRLRSDDTAVYYCARYYGSSWFAYWGQGTLVTVSSASTKGPSVFPLAPSSKSTSGGTAALGCLVKDYFPEPVTVSWNSGALTSGVHTFPAVLQSSGLYSLSSVVTVPSSSLGTQTYICNVNHKPSNTKVDKKVEPKSCDKTHTCPPCPAPPVAGPSVFLFPPKPKDTLMISRTPEVTCVVVDVSHEDPEVKFNWYVDGVEVHNAKTKPREEQYNSTYRVVSVLTVLHQDWLNGKEYKCKVSNKGLPSSIEKTISKAKGQPREPQVYTLPPSRDELTKNQVSLTCLVKGFYPSDIAVEWESNGQPENNYKTTPPVLDSDGSFFLYSKLTVDKSRWQQGNVFSCSVMHEALHNHYTQKSLSLSPGK
notes: Insulin immunoglobulin fusion protein: Ins1-L3-Ab4L light chain fusion paired with the full humanized heavy chain Ab4H; also called Ins1-L3-Ab4 IgG; Ins1-L3-Ab4L and Ab4H
B4: Ins1-L3-Ab5 Fab (Fab)
light: FVNQHLCGSDLVEALYLVCGERGFFYTDPTGGGPRRGIVEQCCHSICSLYQLENYCNGGGEAAAKEAAAKEAAAKAGGEIVLTQSPGTLSLSPGERATLSCSASSTISSNYLHWYQQKPGQAPRLLIYRTSDLASGIPDRFSGSGSGTDFTLTISRLEPEDFAVYYCQQGSSIPFTFGQGTKLEIKRTVAAPSVFIFPPSDEQLKSGTASVVCLLNNFYPREAKVQWKVDNALQSGNSQESVTEQDSKDSTYSLSSTLTLSKADYEKHKVYACEVTHQGLSSPVTKSFNRGEC
heavy: QVQLVQSGAEVKKPGASVKVSCKASGYTFTNYWMHWVRQAPGQGLEWMGWIDLNSGGTNYNYAQKFQGRVTMTRDTSISTAYMELSRLRSDDTAVYYCARYYGSSWFAYWGQGTLVTVSSASTKGPSVFPLAPSSKSTSGGTAALGCLVKDYFPEPVTVSWNSGALTSGVHTFPAVLQSSGLYSLSSVVTVPSSSLGTQTYICNVNHKPSNTKVDKKVEPKSCDKTHT
notes: As Ins1-L3-Ab4 Fab but with the Ab5H Fab heavy chain (Ab4H mutated at position 50); also called Ins1-L3-Ab5L (Fab)
B5: Ins1-L1-Ab1H IgG (antibody)
heavy: FVNQHLCGSDLVEALYLVCGERGFFYTDPTGGGPRRGIVEQCCHSICSLYQLENYCNGGGGSQVQLQQPGAELVKPGASVKLSCKASGYTFTNYWMHWVKQRPGRGLEWIGRIDLNSGGTNYNYNEKFKTKATLTVDKPSSTAYMQLSSLTSEDSAVYYCANYYGSSWFAYWGQGTTLTVSSAKTTAPSVYPLAPVCGDTTGSSVTLGCLVKGYFPEPVTLTWNSGSLSSGVHTFPAVLQSDLYTLSSSVTVTSSTWPSQSITCNVAHPASSTKVDKKIEPRGPTIKPCPPCKCPAPNLLGGPSVFIFPPKIKDVLMISLSPIVTCVVVDVSEDDPDVQISWFVNNVEVHTAQTQTHREDYNSTLRVVSALPIQHQDWMSGKEFKCKVNNKDLPAPIERTISKPKGSVRAPQVYVLPPPEEEMTKKQVTLTCMVTDFMPEDIYVEWTNNGKTELNYKNTEPVLDSDGSYFMYSKLRVEKKNWVERNSYSCSVVHEGLHNHHTTKSFSRTPGK
light: ETVLTQSPTTMATSPGEKITITCSASSTISSNYLHWYQQKPGFSPKLLIYRTSDLASGVPTRFSGSGSGTSYSLTIGTMEAEDVATYYCQQGSSIPFTFGSGTKLEINRADTAPTVSIFPPSSEQLTSGGASVVCFLNNFYPKDINVKWKIDGSERQNGVLNSWTDQDSKDSTYSMSSTLTLTKDEYERHNSYTCEATHKTSTSPIVKSFNRNEC
notes: also called Ins-L1-Ab1H IgG

Key:
[1] = target: T1, human ASGPR (asialoglycoprotein …); assay: ELISA, coated ASGPR antigen (FIG. 3)
Description: (§1) The activity of anti-ASGPR within the Ins1-L1-Ab1L IgG (SEQ ID NOS: 79, 29) and Ins1-L1-Ab1H IgG (SEQ ID NOS: 78, 30) fusion proteins for human ASGPR was tested by ELISA assay. Briefly, 100 ng/well ASGPR antigen (human, rat and cyno monkey) was coated on 96-well plate in PBS at 4° C. overnight; the wells were blocked with 2% milk/PBST (0.5% Tween-20 in PBS) at room temperature for 1 hr; antibodies were added in concentrations of 10 nM, 1 nM and 0.1 nM in 2% milk/PBST at room temperature for 2 hr; the wells were washed with PBST 4-5 times; anti-light chain kappa (sigma A7164) in 2% milk/PBST was added and the plate incubated at room temperature for 1 hr; the wells were washed with PBST 4-5 times; and the reaction was developed with QuantaBlu fluorogenic peroxidase substrate (Life technologies, 15169), and quantified using a Spectramax fluorescence plate reader with excitation at 325 nm and emission at 420 nm. […] The figures illustrate that anti-ASGPR antibodies fused to insulin therapeutic peptides retain activity for their antigen ASGPR.

[2] = target: T2, rat ASGPR; assay: ELISA, 100 ng/well coated ASGPR antigen, antibodies at 10, 1 and 0.1 nM, anti-kappa detection
Description: as §1

[3] = target: T1, human ASGPR (asialoglycoprotein …); assay: ELISA (FIG. 16)
[4] = target: T2, rat ASGPR; assay: ELISA (FIG. 16)
[5] = target: T3, cynomolgus monkey ASGPR; assay: ELISA (FIG. 16)
[6] = target: T1, human ASGPR (asialoglycoprotein …); assay: ELISA (FIG. 37)
Description: (§2) The activity of anti-ASGPR within Ins1-L3-Ab4 Fab and Ins1-L3-Ab5 Fab fusion proteins for human, rat, and cyno monkey ASGPR was tested by ELISA assay as shown in FIGS. 37-39 as generally described in Example 3. 100 ng/well ASGPR antigen (human, rat, and cyno monkey) was coated on 96-well plate in PBS 4° C. over night, blocked with 2% milk/PBST (0.5% Tween-20 in PBS) at room temperature for 1 hr, and incubated with the fusion proteins at 4 nM, 20 nM, 100 nM, and 500 nM in 2% milk/PBST at room temperature for 2 hr. Wells were then washed with PBST for 4-5 times, incubated with mouse anti-insulin (MA5-12037, ThermoFisher Scientific) in 2% milk/PBST at room temperature for 2 hr, washed with PBST for 4-5 times, incubated with goat anti-mouse IgG-HRP (115-035-008, Jackson ImmunoResearch) for 30 min, and washed with PBST for 4-5 times The plates were developed with QuantaBlu fluorogenic peroxidase substrate (Life technologies, 15169), and quantified using Spectramax fluorescence plate reader with excitation at 325 nm and emission at 420 nm.
(§3) The figures illustrate that anti-ASGPR antibodies fused to insulin therapeutic peptides retain activity for their antigen ASGPR as determined by ELISA assay.

[7] = target: T2, rat ASGPR; assay: ELISA (FIG. 38)
Description: as §2, §3

[8] = target: T3, cynomolgus monkey ASGPR; assay: ELISA (FIG. 39)
Description: as §2, §3

Binder	binding result [1]	binding result [2]	binding result [3]	binding result [4]	binding result [5]	other results
B1	binds	binds				
B2			binds	binds	binds	
B3			binds	binds	binds	
B4						binding result [6]: binds; binding result [7]: binds; binding result [8]: binds
B5	binds	binds				
